Legend:
[1] = biological target: T1, supercharged variant of human trypsinogen-1 (PRSS1 sc)
T1 chain: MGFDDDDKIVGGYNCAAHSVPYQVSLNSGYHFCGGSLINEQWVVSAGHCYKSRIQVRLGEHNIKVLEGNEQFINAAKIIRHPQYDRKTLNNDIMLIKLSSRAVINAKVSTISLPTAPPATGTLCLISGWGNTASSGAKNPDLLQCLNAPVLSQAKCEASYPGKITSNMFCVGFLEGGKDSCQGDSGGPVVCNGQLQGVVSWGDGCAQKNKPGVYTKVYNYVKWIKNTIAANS

[2] = biological target: human wild type trypsinogen-1 (PRSS1 wt)

B1: human enteropeptidase light chain sc C112S (hEPI-sc-C112S) (protein)
chain: IVGGSDAKEGAWPWVVGLYYDDRLLCGASLVSSDWLVSAAHCVYGRNLEPSKWTAILGLHMKSNLTSPQTVPRLIDEIVINPHYNRRRKDNDIAMMHLEFKVNYTDYIQPISLPEENQVFPPGRNCSIAGWGTVVYQGTTADILQEADVPLLSNERCQQQMPEYNITENMICAGYEEGGIDSCQGDSGGPLMCQENNRWFLAGVTSFGYECALPNRPGVYARVSRFTEWIQSFLH
[1]
  activation of trypsinogen by enteropeptidase (trypsin activity on CBZ-GPR-pNA; fluorescence of FRET peptide 7): Both PRSS1 versions can be activated to similar levels, although PRSS1 sc shows a slightly slower activation profile
[2]
  activation of trypsinogen by enteropeptidase (trypsin activity on CBZ-GPR-pNA; fluorescence of FRET peptide 7): Both PRSS1 versions can be activated to similar levels
